Literature values as cited in article PMC5828189.

Biological target: C1q globular head (gC1q) (Homo sapiens) (UniProt P02745)
Chain of UniProt P02745 (P02745 23-245, chain 1 of 3): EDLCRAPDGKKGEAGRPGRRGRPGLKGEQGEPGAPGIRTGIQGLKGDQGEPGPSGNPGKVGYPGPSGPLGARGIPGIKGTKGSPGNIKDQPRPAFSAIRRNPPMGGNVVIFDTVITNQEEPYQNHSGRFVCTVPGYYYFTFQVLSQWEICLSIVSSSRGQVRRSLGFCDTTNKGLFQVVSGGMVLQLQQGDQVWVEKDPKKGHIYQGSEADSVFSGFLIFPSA
Chain of UniProt P02745 (P02746 28-253, chain 2 of 3, further chain): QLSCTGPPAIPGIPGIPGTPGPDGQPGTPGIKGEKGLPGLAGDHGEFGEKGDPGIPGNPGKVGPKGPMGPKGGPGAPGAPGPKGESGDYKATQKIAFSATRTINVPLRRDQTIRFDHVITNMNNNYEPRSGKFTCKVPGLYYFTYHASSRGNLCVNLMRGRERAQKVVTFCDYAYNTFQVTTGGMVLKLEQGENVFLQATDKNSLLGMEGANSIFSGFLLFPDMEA
Chain of UniProt P02745 (P02747 29-245, chain 3 of 3, further chain): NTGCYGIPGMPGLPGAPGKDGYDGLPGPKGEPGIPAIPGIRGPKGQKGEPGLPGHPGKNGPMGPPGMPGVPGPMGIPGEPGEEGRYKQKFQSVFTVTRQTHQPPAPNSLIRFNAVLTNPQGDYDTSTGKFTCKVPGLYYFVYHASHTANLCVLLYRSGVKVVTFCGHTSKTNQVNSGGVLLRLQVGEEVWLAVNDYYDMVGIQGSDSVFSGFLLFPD

HABP1/p32/gC1qR (from UniProt Q07021)
Kd: 75 nM
